Laboratory results published in the supplement of paper PMC10567573.

B1: SLC2A12 (parent)
chain: TRIMIGLTLVFFVQITGQPNILFY
B2: PRKX (parent)
chain: KLLVVDRTRRLGNMKNGANDVKHH

Variants of: B1
Assay: protein stability index of a GFP-peptide fusion (GPS, HEK-293T) (PSI 1-6); higher = more stable
Details: c terminus: a fixed tail appended
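Note: lentivirally expressed fusions sorted by FACS into six bins by GFP to DsRed ratio, PSI derived from sequencing read proportions per bin multiplied by bin number.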

Protein stability index of substitutions, site by site:
R2: L 2.57, H 2.17, Y 2.27, M 4.67, T 2.27, I 2.93, W 3.62, D 3.39, K 2.82, C 1.74
Q18: A 3.12, K 3.22, S 3.39, H 3.08, V 4.47, G 3.24, N 2.47, D 2.16, T 2.7, C 2.86, P 3.94, R 3.77, Y 3.56
N20: H 3.83, A 3.57, M 3.84, Q 2.61, F 2.45, S 2.15, Y 2.54, G 3.69, C 3.04, E 2.12, R 2.67, K 4.43
F11: C 3.27, D 2.15, T 3.22, I 3.63, N 2, S 3.83, R 2.16, G 2.78, Y 3.02
Y24: M 4.11, Q 2.06, E 3.1, H 2.29, F 5.58, N 2.88, T 3.56, G 2.83, V 4.22, W 2.69
T1: W 3.23, M 1.44, I 3.72, K 2.57, A 2.48, G 3.81, P 2.26, S 3.37
I15: M 2.5, R 2.93, P 3.74, S 2.98, T 3.01, Y 3.97, F 3.46, G 1.73, Q 3.39, H 2
I3: F 2.81, K 2.94, G 2.12, L 2.85, A 2.59, Y 3.58, N 2.12, H 2.87, R 2.86, P 2.49, C 2.21
L9: G 2.8, Q 1.7, F 5.04, A 3.04, N 2.69, C 2.63, R 3.25
Q14: D 2.14, Y 3.3, G 3.68, V 3.44, R 2.38, A 3.31, T 3.67, H 2.02, E 2.11, F 2.86, K 3.25, N 3.37, I 2.88
F12: L 3.53, V 3.31, N 3.88, I 2.79, K 2.95, E 2.77, Q 3.16, P 4.16, H 3.17, S 3.48, A 4.95, M 2.49, D 2.7
L22: F 2.79, W 2.65, D 3.15, Q 1.83, S 3.01, E 3.11
T8: G 2.77, N 3.93, Q 2.43, Y 2.64, P 4.51, I 2.72, S 2.71, H 4.12, L 3.33, M 3.52
V10: L 2.4, E 3.41, W 2.58, C 2.69, F 3.06, M 3.53, N 3.65, G 3.27, T 3.36, K 3.44, A 3.99, R 2.5, H 3.39, D 1.78, P 2.51, Y 2.56
T16: N 4.04, H 3.42, A 2.63, L 1.04, S 3.65, W 2.42, I 4.14, P 3.4, E 2.95, Q 3.11
L7: S 3.54, Y 4.24, E 2.62, A 3.65, N 2.78, I 2.63, H 3.31, R 2.42, F 2.41, Q 1.72
F23: Y 3.75, M 2.94, S 2.97, D 2.29, V 2.56, G 3.83, C 2.54, A 3.26, L 3.52, E 3.67, K 3.29, P 3.99, I 3.73
P19: V 3.9, M 2.83, R 3.63, Y 2.23, Q 2.6, I 3.15, F 3.16, G 2.96, L 3.42, H 3.72, N 1.72
I21: L 2.73, Q 2.1, Y 2.98, C 2.42, S 4.17, F 3.31, H 2.49, G 4.22, R 2.73, E 3.88, A 2.81, M 1.89, D 3.69, N 2.52
I5: V 2.69, A 2.6, R 2.21, Q 3.43, L 3.43, E 3.74, M 1.77, F 3.16
M4: I 1.92, Y 2.6, Q 2.88, F 2.29, N 3.52, L 2.64, G 2.99, W 3.96, D 3.33, V 4.05
G17: M 3.31, Y 3.48, R 3.35, K 2.58, V 2, W 2.11, A 2.96, H 2.87, T 2.58
G6: H 2.34, Q 2.82, M 2.46, W 1.9, A 1.78, C 2.87, I 1.06, T 3.1, E 3.67, L 2.22
V13: W 2.85, N 3.86, D 2.46, S 2.7, A 3.24, L 2.69, M 3.17, I 3.48, H 3.1, Q 2.33, T 3.18, K 2.19, R 2.87, E 2.15

Variants of: B2
Assay: as above
Details: c terminus: a fixed tail appended

Protein stability index, by site and new letter:
K1: A 2.33, C 1.85, D 3.82, E 2.94, F 1.44, G 3.38, H 2.98, I 1.78, L 1.86, M 1.85, N 3.45, P 3.63, Q 3.37, R 2.52, S 3.51, T 3.45, V 1.82, W 1.55, Y 2.29
L2: A 3.84, C 3.57, D 4.03, E 5.03, F 3.22, G 4.1, H 3.68, I 2.99, K 3.99, M 3.5, N 4.03, P 4.29, Q 4.39, R 3.69, S 4.13, T 3.61, V 3.52, W 2.87, Y 3.04
L3: A 3.92, C 3.74, D 4.38, E 4.33, F 2.72, G 3.93, H 4, I 3.31, K 3.55, M 3.66, N 3.62, P 3.72, Q 3.68, R 3.87, S 4.29, T 4.16, V 2.86, W 3.29, Y 2.69
V4: A 3.31, C 3.17, D 3.77, E 3.46, F 2.61, G 3.32, H 3.62, I 2.46, K 2.7, L 3, M 2.57, N 3.6, P 3.87, Q 3.19, R 2.86, S 3.65, T 3.4, W 2.66, Y 3.32
V5: A 3.74
